{
  "source": "patent EP4703474A1",
  "about": "“ANTI-LRRC15 ANTIBODY” (priority 2023, dated 2024)",
  "molecules": {"B1": {"name": "H02L01-V1-PBD (conjugate)", "heavy": "EVQLVESGGGLVQPGGSLRLSCAASGFTFRDYYMAWVRQAPGKGLEWVSSIGFDESRTYYADSVKGRFTISRDDSKNTLYLQMNSLRAEDTAVYYCARHGVSKYSGDNWFAYWGQGTLVTVSSASTKGPSVFPLAPSSKSTSGGTAALGCLVKDYFPEPVTVSWNSGALTSGVHTFPAVLQSSGLYSLSSVVTVPSSSLGTQTYICNVNHKPSNTKVDKKVEPKSCDKTHTCPPCPAPEAAGGPSVFLFPPKPKDTLMISRTPEVTCVVVDVSHEDPEVKFNWYVDGVEVHNAKTKPREEQYNSTYRVVSVLTVLHQDWLNGKEYKCKVSNKALAAPIEKTISKAKGQPREPQVYTLPPSREEMTKNQVSLTCLVKGFYPSDIAVEWESNGQPENNYKTTPPVLDSDGSFFLYSKLTVDKSRWQQGNVFSCSVMHEALHNHYTQKSLSLSPGK", "light": "DIQMTQSPSSLSASVGDRVTITCKSSQGLLYSGDQKNYLAWYQQKPGKAPKLLIYWASTRQSGVPSRFSGSGSGTDFTLTISSLQPEDFATYYCQQYYDPPYTFGQGTKVEIKRTVAAPSVFIFPPSDEQLKSGTASVVCLLNNFYPREAKVQWKVDNALQSGNSQESVTEQDSKDSTYSLSSTLTLSKADYEKHKVYACEVTHQGLSSPVTKSFNRGEC"}},
  "key": {"[1]": {"system": "Esophageal carcinoma cell line EC-GI-10", "test": "In vivo antitumor effect, EC-GI-10 subcutaneous transplant model", "conditions": "0.4 mg/kg, tail vein, on Day 35, female NSG mice", "procedure": "(§1) The antitumor effects of the antibody-drug conjugates were evaluated by using animal models in which cells of a human tumor cell line had been transplanted into immunodeficient mice, or cells of a mouse tumor cell line had been transplanted into immunocompetent mice. 4 to 6 Week-old SCID mice (CB17/Icr-Prkdc[scid]/CrlCrlj, Jackson Laboratory Japan, Inc.), NSG mice (NOD.Cg-Prkdcscid Il2rgtm1Wjl/SzJ, Jackson Laboratory Japan, Inc.), or B6J mice (C57BL/6J, Jackson Laboratory Japan, Inc.) were habituated for 3 days or more under SPF conditions before experimental use. The mice were fed with sterilized solid feed and given sterilized tap water. The major and minor diameters of the transplanted tumors were measured twice a week with an electronic digital caliper (Mitutoyo Corporation), and the estimated tumor volume was calculated using the following formula. Estimated tumor volume (mm^3) = 1/2 × major diameter (mm) × [minor diameter (mm)]^2 All antibody-drug conjugates were diluted with ABS and administered into the tail vein at doses shown in each Example. In addition, ABS (vehicle) or control hIgG-PBD prepared in Reference Example 4 was administered as the control group, in a similar manner. 5 to 6 Mice were used per group in the experiment. To analyze the LRRC15 expression in mouse tumor models, immunohistochemical staining of LRRC15 was performed. […]"}, "[2]": {"system": "Pancreatic carcinoma cell line BxPC-3 and human adipose tissue-derived mesenchymal stem cells", "test": "In vivo antitumor effect, BxPC-3 co-transplanted with mesenchymal stem cells", "conditions": "BxPC-3 and MSC at 1:3; 0.4 mg/kg, tail vein, on Day 27; female SCID mice", "procedure": "as §1"}},
  "data": [
    {"molecule": "B1", "values": [
      {"measurement": "antitumor effect (estimated tumor volume)", "setting": "[1]", "value": "antitumor activity higher than that of the vehicle and control hIgG-PBD"},
      {"measurement": "antitumor effect (estimated tumor volume)", "setting": "[2]", "value": "antitumor activity higher than that of the vehicle and control hIgG-PBD"}
    ]}
  ]
}
